From patent publication US20250163167A1 (SYNTHEKINE, published 2025)

B1: IL10R binding molecule of SEQ ID NO: 289 (bispecific antibody)
chain: QVQLQESGGGSVQAGGSLRLSCTVSGYTYSSNCMGWFRQAPGKEREGVATIYTGGGNTYYADSVKGRFTISQDNAKNTVYLQMNNLKPEDTAMYYCAAEPLSRVYGGSCPTPTFDYWGQGTQVTVSSGGGSQVQLQESGGGSVQAGGSLRLSCAASGYSYSSYCMGWFRQAPGKEREGVATIDSDGMTRYADSVKGRFTISKDNAKNTLYLQMNSLKPEDTAMYYCAAPLYDCDSGAVGRNPPYWGQGTQVTVSSASHHHHHH
B2: IL10R binding molecule of SEQ ID NO: 257 (bispecific antibody)
chain: QVQLQESGGGSVQAGGSLRLSCAASRYLYSIDYMAWFRQSPGKEREPVAVIYTASGATFYPDSVKGRFTISQDNAKMTVYLQMNSLKSEDTAMYYCAAVRKTDSYLFDAQSFTYWGQGTQVTVSSGGGSQVQLQESGGGSVQAGGSLRLSCAASGYTYSSYCMGWFRQAPGKEREGVAHIDSDGSTSYADSVKGRFTISKDNAKNTLYLQMNSLKPEDTAMYYCAADPIPGPGYCDGGPNKYWGQGTQVTVSSASHHHHHH
B3: IL10R binding molecule of SEQ ID NO: 286 (bispecific antibody)
chain: QVQLQESGGGSVQAGGSLRLSCTVSGYTYSSNCMGWFRQAPGKEREGVATIYTGGGNTYYADSVKGRFTISQDNAKNTVYLQMNNLKPEDTAMYYCAAEPLSRVYGGSCPTPTFDYWGQGTQVTVSSGGGSQVQLQESGGGSVQAGGSLRLSCAASRYTYNSYCMGWFRQAPGKEREGVATIDSDGMTRYADSVKGRFTISKDNAKNTLYLQMNSLKPEDTAMYYCAADADCTIAAMTTNPLGQGTQVTVSSASHHHHHH
B4: IL10R binding molecule of SEQ ID NO: 283 (bispecific antibody)
chain: QVQLQESGGGSVQAGGSLRLSCAVSGYAYSTYCMGWFRQAPGKEREGVAAIDSGGSTSYADSVKGRFTISKDNAKNTLYLRMNSLKPEDTAMYYCAAVPPPPDGGSCLFLGPEIKVSKADFRYWGQGTQVTVSSGGGSQVQLQESGGGSVQTGGSLRLSCAASGYTYLRGCMGWFRQAPGKEREGVAVMDVVGDRRSYIDSVKGRFTISRDNAANSVYLQMDNLKPEDTAMYYCTAGPNCVGWRSGLDYWGQGTQVTVSSASHHHHHH
B5: IL10R binding molecule of SEQ ID NO: 277 (bispecific antibody)
chain: QVQLQESGGGSVQAGGSLRLSCAVSGYAYSTYCMGWFRQAPGKEREGVAAIDSGGSTSYADSVKGRFTISKDNAKNTLYLRMNSLKPEDTAMYYCAAVPPPPDGGSCLFLGPEIKVSKADFRYWGQGTQVTVSSGGGSQVQLQESGGGSVQAGGSLRLSCAASGYTYSSGCMGWFRQAPGKEREAVAAINSDGSTSYADSVKGRFTISKDNAKNTLYLQMNSLKPEDTAMYYCAAEPYCSGGYPRWSVAEFGYWGQGTQVTVSSASHHHHHH
B6: IL10R binding molecule of SEQ ID NO: 287 (bispecific antibody)
chain: QVQLQESGGGSVQAGGSLRLSCTVSGYTYSSNCMGWFRQAPGKEREGVATIYTGGGNTYYADSVKGRFTISQDNAKNTVYLQMNNLKPEDTAMYYCAAEPLSRVYGGSCPTPTFDYWGQGTQVTVSSGGGSQVQLQESGGGSVQAGGSLRLSCTVSRYTASVNYMGWFRQAPGKEREGVATIFTGAGTTYYANSVKGRFTISRDNAKNTAYLQMNSLKPEDTAIYYCAVDFRGGLLYRPAYEYTYRGQGTQVTVSSASHHHHHH
B7: IL10R binding molecule of SEQ ID NO: 276 (bispecific antibody)
chain: QVQLQESGGGSVQAGGSLRLSCAASGYTYSMYCMGWFRQAPGKEREGVAQINSDGSTSYADSVKGRFTISKDNAKNTLYLQMNSLKPEDTAMYYCAADSRVYGGSWYERLCGPYTYEYNYWGQGTQVTVSSGGGSQVQLQESGGGSVQTGGSLRLSCAASGYTYLRGCMGWFRQAPGKEREGVAVMDVVGDRRSYIDSVKGRFTISRDNAANSVYLQMDNLKPEDTAMYYCTAGPNCVGWRSGLDYWGQGTQVTVSSASHHHHHH
B8: IL10R binding molecule of SEQ ID NO: 284 (bispecific antibody)
chain: QVQLQESGGGSVQAGGSLRLSCTVSGYTYSSNCMGWFRQAPGKEREGVATIYTGGGNTYYADSVKGRFTISQDNAKNTVYLQMNNLKPEDTAMYYCAAEPLSRVYGGSCPTPTFDYWGQGTQVTVSSGGGSQVQLQESGGGSVQAGGSLRLSCAASGYTYSSGCMGWFRQAPGKEREAVAAINSDGSTSYADSVKGRFTISKDNAKNTLYLQMNSLKPEDTAMYYCAAEPYCSGGYPRWSVAEFGYWGQGTQVTVSSASHHHHHH
B9: IL10R binding molecule of SEQ ID NO: 280 (bispecific antibody)
chain: QVQLQESGGGSVQAGGSLRLSCAVSGYAYSTYCMGWFRQAPGKEREGVAAIDSGGSTSYADSVKGRFTISKDNAKNTLYLRMNSLKPEDTAMYYCAAVPPPPDGGSCLFLGPEIKVSKADFRYWGQGTQVTVSSGGGSQVQLQESGGGSVQAGGSLRLSCTVSRYTASVNYMGWFRQAPGKEREGVATIFTGAGTTYYANSVKGRFTISRDNAKNTAYLQMNSLKPEDTAIYYCAVDFRGGLLYRPAYEYTYRGQGTQVTVSSASHHHHHH
B10: IL10R binding molecule of SEQ ID NO: 281 (bispecific antibody)
chain: QVQLQESGGGSVQAGGSLRLSCAVSGYAYSTYCMGWFRQAPGKEREGVAAIDSGGSTSYADSVKGRFTISKDNAKNTLYLRMNSLKPEDTAMYYCAAVPPPPDGGSCLFLGPEIKVSKADFRYWGQGTQVTVSSGGGSQVQLQESGGGSVEAGGSLRLSCAASGYTHSSYCMGWFRQAPGKEREGVAAIDVDGSTTYADSVKGRFTISKDNAKNTLYLQMNSLKPEDTGMYYCAAEFADCSSNYFLPPGAVRYWGQGTQVTVSSASHHHHHH
B11: IL10R binding molecule of SEQ ID NO: 288 (bispecific antibody)
chain: QVQLQESGGGSVQAGGSLRLSCTVSGYTYSSNCMGWFRQAPGKEREGVATIYTGGGNTYYADSVKGRFTISQDNAKNTVYLQMNNLKPEDTAMYYCAAEPLSRVYGGSCPTPTFDYWGQGTQVTVSSGGGSQVQLQESGGGSVEAGGSLRLSCAASGYTHSSYCMGWFRQAPGKEREGVAAIDVDGSTTYADSVKGRFTISKDNAKNTLYLQMNSLKPEDTGMYYCAAEFADCSSNYFLPPGAVRYWGQGTQVTVSSASHHHHHH
B12: IL10R binding molecule of SEQ ID NO: 282 (bispecific antibody)
chain: QVQLQESGGGSVQAGGSLRLSCAVSGYAYSTYCMGWFRQAPGKEREGVAAIDSGGSTSYADSVKGRFTISKDNAKNTLYLRMNSLKPEDTAMYYCAAVPPPPDGGSCLFLGPEIKVSKADFRYWGQGTQVTVSSGGGSQVQLQESGGGSVQAGGSLRLSCAASGYSYSSYCMGWFRQAPGKEREGVATIDSDGMTRYADSVKGRFTISKDNAKNTLYLQMNSLKPEDTAMYYCAAPLYDCDSGAVGRNPPYWGQGTQVTVSSASHHHHHH
B13: IL10R binding molecule of SEQ ID NO: 278 (bispecific antibody)
chain: QVQLQESGGGSVQAGGSLRLSCAVSGYAYSTYCMGWFRQAPGKEREGVAAIDSGGSTSYADSVKGRFTISKDNAKNTLYLRMNSLKPEDTAMYYCAAVPPPPDGGSCLFLGPEIKVSKADFRYWGQGTQVTVSSGGGSQVQLQESGGGSVQAGGSLRLSCAASGYTYSSYCMGWFRQAPGKEREGVAHIDSDGSTSYADSVKGRFTISKDNAKNTLYLQMNSLKPEDTAMYYCAADPIPGPGYCDGGPNKYWGQGTQVTVSSASHHHHHH
B14: IL10R binding molecule of SEQ ID NO: 279 (bispecific antibody)
chain: QVQLQESGGGSVQAGGSLRLSCAVSGYAYSTYCMGWFRQAPGKEREGVAAIDSGGSTSYADSVKGRFTISKDNAKNTLYLRMNSLKPEDTAMYYCAAVPPPPDGGSCLFLGPEIKVSKADFRYWGQGTQVTVSSGGGSQVQLQESGGGSVQAGGSLRLSCAASRYTYNSYCMGWFRQAPGKEREGVATIDSDGMTRYADSVKGRFTISKDNAKNTLYLQMNSLKPEDTAMYYCAADADCTIAAMTTNPLGQGTQVTVSSASHHHHHH
B15: IL10R binding molecule of SEQ ID NO: 285 (bispecific antibody)
chain: QVQLQESGGGSVQAGGSLRLSCTVSGYTYSSNCMGWFRQAPGKEREGVATIYTGGGNTYYADSVKGRFTISQDNAKNTVYLQMNNLKPEDTAMYYCAAEPLSRVYGGSCPTPTFDYWGQGTQVTVSSGGGSQVQLQESGGGSVQAGGSLRLSCAASGYTYSSYCMGWFRQAPGKEREGVAHIDSDGSTSYADSVKGRFTISKDNAKNTLYLQMNSLKPEDTAMYYCAADPIPGPGYCDGGPNKYWGQGTQVTVSSASHHHHHH
B16: IL10R binding molecule of SEQ ID NO: 275 (bispecific antibody)
chain: QVQLQESGGGSVQAGGSLRLSCAASGYTYSMYCMGWFRQAPGKEREGVAQINSDGSTSYADSVKGRFTISKDNAKNTLYLQMNSLKPEDTAMYYCAADSRVYGGSWYERLCGPYTYEYNYWGQGTQVTVSSGGGSQVQLQESGGGSVQAGGSLRLSCAASGYSYSSYCMGWFRQAPGKEREGVATIDSDGMTRYADSVKGRFTISKDNAKNTLYLQMNSLKPEDTAMYYCAAPLYDCDSGAVGRNPPYWGQGTQVTVSSASHHHHHH

biological target: T1, human IL-10 receptor (hIL-10R alpha and beta chains) on HEK-Blue IL-10 reporter cells (human, UniProt Q13651 22-578; Q08334 20-325); assay: cell-based or functional assay
T1 sequence 1: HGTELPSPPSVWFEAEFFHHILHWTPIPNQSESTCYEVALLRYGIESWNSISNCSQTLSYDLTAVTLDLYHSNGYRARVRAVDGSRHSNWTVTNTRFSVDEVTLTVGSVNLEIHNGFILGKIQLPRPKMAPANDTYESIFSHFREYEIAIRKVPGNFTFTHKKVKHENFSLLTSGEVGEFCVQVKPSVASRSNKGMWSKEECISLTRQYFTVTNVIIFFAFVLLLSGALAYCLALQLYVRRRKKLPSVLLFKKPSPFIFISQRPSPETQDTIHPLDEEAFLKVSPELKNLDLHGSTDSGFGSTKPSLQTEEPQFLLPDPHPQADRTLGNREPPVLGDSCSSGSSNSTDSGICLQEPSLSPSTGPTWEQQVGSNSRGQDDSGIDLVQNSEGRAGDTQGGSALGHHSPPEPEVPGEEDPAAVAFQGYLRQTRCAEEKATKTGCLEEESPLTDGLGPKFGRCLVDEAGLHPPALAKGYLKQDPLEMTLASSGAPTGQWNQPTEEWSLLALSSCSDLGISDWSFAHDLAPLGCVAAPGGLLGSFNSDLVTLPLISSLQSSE
T1 sequence 2: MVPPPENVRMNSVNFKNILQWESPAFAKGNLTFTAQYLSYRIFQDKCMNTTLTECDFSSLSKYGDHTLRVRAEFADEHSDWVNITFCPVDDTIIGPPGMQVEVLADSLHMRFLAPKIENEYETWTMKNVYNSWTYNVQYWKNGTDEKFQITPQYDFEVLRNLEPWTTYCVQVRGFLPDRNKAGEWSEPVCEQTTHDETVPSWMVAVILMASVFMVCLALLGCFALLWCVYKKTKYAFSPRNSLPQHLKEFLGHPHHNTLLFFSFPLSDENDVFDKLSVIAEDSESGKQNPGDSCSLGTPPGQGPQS

Point of comparison: B4, “Abs 630 (25 nM)” value 0.48 Abs 630. Against it:
- B1 — the same, 0.48 Abs 630
- B2 — lower, 0.45 Abs 630
- B3 — lower, 0.46 Abs 630
- B5 — higher, 1.19 Abs 630
- B6 — higher, 0.9 Abs 630
- B7 — lower, 0.46 Abs 630
- B8 — lower, 0.45 Abs 630
- B9 — higher, 0.49 Abs 630
- B10 — higher, 0.66 Abs 630
- B11 — higher, 0.5 Abs 630
- B12 — lower, 0.44 Abs 630
- B13 — higher, 1.61 Abs 630
- B14 — higher, 0.49 Abs 630
- B15 — the same, 0.48 Abs 630
- B16 — higher, 0.51 Abs 630

Point of comparison: B10, “Abs 630 (100 nM)” value 0.69 Abs 630. Against it:
- B1 — lower, 0.39 Abs 630
- B2 — lower, 0.36 Abs 630
- B3 — lower, 0.39 Abs 630
- B4 — lower, 0.39 Abs 630
- B5 — higher, 1 Abs 630
- B6 — lower, 0.51 Abs 630
- B7 — lower, 0.36 Abs 630
- B8 — lower, 0.34 Abs 630
- B9 — lower, 0.37 Abs 630
- B11 — lower, 0.44 Abs 630
- B12 — lower, 0.36 Abs 630
- B13 — higher, 1.18 Abs 630
- B14 — lower, 0.39 Abs 630
- B15 — lower, 0.39 Abs 630
- B16 — lower, 0.36 Abs 630
